# Measurements reported in patent US10919943B2, “Mutant proteins enabling agrochemical control of plant gene expression” (The Regents of the University of California, priority 2016, dated 2021).
# Changes are numbered by the printed parent chain. Names and notes keep the numbering of the source.
# B1: A89P: PYR1 mutant (protein, UniProt O49686 1-191, looked up, variant A89P)
# Abscisic acid receptor PYR1: MPSELTPEERSELKNSIAEFHTYQLDPGSCSSLHAQRIHAPPELVWSIVRRFDKPQTYKHFIKSCSVEQNFEMRVGCTRDVIVISGLPPNTSTERLDILDDERRVTGFSIIGGEHRLTNYKSVTTVHRFEKENRIWTVVLESYVVDMPEGNSEDDTRMFADTVVKLNLQKLATVAEAMARNSGDGSGSQVT
# B2: H115E: PYR1 mutant (protein, UniProt O49686 1-191, looked up, variant H115E)
# Abscisic acid receptor PYR1: B1 Abscisic acid receptor PYR1 with P89A, H115E
# B3: H115C: PYR1 mutant (protein, UniProt O49686 1-191, looked up, variant H115C)
# Abscisic acid receptor PYR1: B1 Abscisic acid receptor PYR1 with P89A, H115C
# B4: R116Y: PYR1 mutant (protein, UniProt O49686 1-191, looked up, variant R116Y)
# Abscisic acid receptor PYR1: B1 Abscisic acid receptor PYR1 with P89A, R116Y
# B5: R116V: PYR1 mutant (protein, UniProt O49686 1-191, looked up, variant R116V)
# Abscisic acid receptor PYR1: B1 Abscisic acid receptor PYR1 with P89A, R116V
# B6: R116C: PYR1 mutant (protein, UniProt O49686 1-191, looked up, variant R116C)
# Abscisic acid receptor PYR1: B1 Abscisic acid receptor PYR1 with P89A, R116C
# B7: A89K: PYR1 mutant (protein, UniProt O49686 1-191, looked up, variant A89K)
# Abscisic acid receptor PYR1: B1 Abscisic acid receptor PYR1 with P89K
# B8: H115S: PYR1 mutant (protein, UniProt O49686 1-191, looked up, variant H115S)
# Abscisic acid receptor PYR1: B1 Abscisic acid receptor PYR1 with P89A, H115S
# B9: R116D: PYR1 mutant (protein, UniProt O49686 1-191, looked up, variant R116D)
# Abscisic acid receptor PYR1: B1 Abscisic acid receptor PYR1 with P89A, R116D
# B10: H115T: PYR1 mutant (protein, UniProt O49686 1-191, looked up, variant H115T)
# Abscisic acid receptor PYR1: B1 Abscisic acid receptor PYR1 with P89A, H115T
# B11: R116A: PYR1 mutant (protein, UniProt O49686 1-191, looked up, variant R116A)
# Abscisic acid receptor PYR1: B1 Abscisic acid receptor PYR1 with P89A, R116A
# B12: H115A: PYR1 mutant (protein, UniProt O49686 1-191, looked up, variant H115A)
# Abscisic acid receptor PYR1: B1 Abscisic acid receptor PYR1 with P89A, H115A
# B13: A89E: PYR1 mutant (protein, UniProt O49686 1-191, looked up, variant A89E)
# Abscisic acid receptor PYR1: B1 Abscisic acid receptor PYR1 with P89E
# B14: H115V: PYR1 mutant (protein, UniProt O49686 1-191, looked up, variant H115V)
# Abscisic acid receptor PYR1: B1 Abscisic acid receptor PYR1 with P89A, H115V
# B15: H115P: PYR1 mutant (protein, UniProt O49686 1-191, looked up, variant H115P)
# Abscisic acid receptor PYR1: B1 Abscisic acid receptor PYR1 with P89A, H115P
# B16: R116P: PYR1 mutant (protein, UniProt O49686 1-191, looked up, variant R116P)
# Abscisic acid receptor PYR1: B1 Abscisic acid receptor PYR1 with P89A, R116P
# B17: H115R: PYR1 mutant (protein, UniProt O49686 1-191, looked up, variant H115R)
# Abscisic acid receptor PYR1: B1 Abscisic acid receptor PYR1 with P89A, H115R
# B18: A89F: PYR1 mutant (protein, UniProt O49686 1-191, looked up, variant A89F)
# Abscisic acid receptor PYR1: B1 Abscisic acid receptor PYR1 with P89F
# B19: H115Y: PYR1 mutant (protein, UniProt O49686 1-191, looked up, variant H115Y)
# Abscisic acid receptor PYR1: B1 Abscisic acid receptor PYR1 with P89A, H115Y
# B20: H115Q: PYR1 mutant (protein, UniProt O49686 1-191, looked up, variant H115Q)
# Abscisic acid receptor PYR1: B1 Abscisic acid receptor PYR1 with P89A, H115Q
# B21: A89R: PYR1 mutant (protein, UniProt O49686 1-191, looked up, variant A89R)
# Abscisic acid receptor PYR1: B1 Abscisic acid receptor PYR1 with P89R
# B22: A89C: PYR1 mutant (protein, UniProt O49686 1-191, looked up, variant A89C)
# Abscisic acid receptor PYR1: B1 Abscisic acid receptor PYR1 with P89C
# B23: H115I: PYR1 mutant (protein, UniProt O49686 1-191, looked up, variant H115I)
# Abscisic acid receptor PYR1: B1 Abscisic acid receptor PYR1 with P89A, H115I
# B24: H115D: PYR1 mutant (protein, UniProt O49686 1-191, looked up, variant H115D)
# Abscisic acid receptor PYR1: B1 Abscisic acid receptor PYR1 with P89A, H115D
# B25: A89I: PYR1 mutant (protein, UniProt O49686 1-191, looked up, variant A89I)
# Abscisic acid receptor PYR1: B1 Abscisic acid receptor PYR1 with P89I
# B26: R116G: PYR1 mutant (protein, UniProt O49686 1-191, looked up, variant R116G)
# Abscisic acid receptor PYR1: B1 Abscisic acid receptor PYR1 with P89A, R116G
# B27: R116E: PYR1 mutant (protein, UniProt O49686 1-191, looked up, variant R116E)
# Abscisic acid receptor PYR1: B1 Abscisic acid receptor PYR1 with P89A, R116E
# B28: A89Y: PYR1 mutant (protein, UniProt O49686 1-191, looked up, variant A89Y)
# Abscisic acid receptor PYR1: B1 Abscisic acid receptor PYR1 with P89Y
# B29: A89H: PYR1 mutant (protein, UniProt O49686 1-191, looked up, variant A89H)
# Abscisic acid receptor PYR1: B1 Abscisic acid receptor PYR1 with P89H
# B30: A89S: PYR1 mutant (protein, UniProt O49686 1-191, looked up, variant A89S)
# Abscisic acid receptor PYR1: B1 Abscisic acid receptor PYR1 with P89S
# B31: R116S: PYR1 mutant (protein, UniProt O49686 1-191, looked up, variant R116S)
# Abscisic acid receptor PYR1: B1 Abscisic acid receptor PYR1 with P89A, R116S
# B32: H115G: PYR1 mutant (protein, UniProt O49686 1-191, looked up, variant H115G)
# Abscisic acid receptor PYR1: B1 Abscisic acid receptor PYR1 with P89A, H115G
# B33: R116T: PYR1 mutant (protein, UniProt O49686 1-191, looked up, variant R116T)
# Abscisic acid receptor PYR1: B1 Abscisic acid receptor PYR1 with P89A, R116T
# B34: H115K: PYR1 mutant (protein, UniProt O49686 1-191, looked up, variant H115K)
# Abscisic acid receptor PYR1: B1 Abscisic acid receptor PYR1 with P89A, H115K
# B35: A89T: PYR1 mutant (protein, UniProt O49686 1-191, looked up, variant A89T)
# Abscisic acid receptor PYR1: B1 Abscisic acid receptor PYR1 with P89T
# B36: R116H: PYR1 mutant (protein, UniProt O49686 1-191, looked up, variant R116H)
# Abscisic acid receptor PYR1: B1 Abscisic acid receptor PYR1 with P89A, R116H
# B37: A89V: PYR1 mutant (protein, UniProt O49686 1-191, looked up, variant A89V)
# Abscisic acid receptor PYR1: B1 Abscisic acid receptor PYR1 with P89V
# B38: A89Q: PYR1 mutant (protein, UniProt O49686 1-191, looked up, variant A89Q)
# Abscisic acid receptor PYR1: B1 Abscisic acid receptor PYR1 with P89Q
# B39: A89D: PYR1 mutant (protein, UniProt O49686 1-191, looked up, variant A89D)
# Abscisic acid receptor PYR1: B1 Abscisic acid receptor PYR1 with P89D
# B40: H115W: PYR1 mutant (protein, UniProt O49686 1-191, looked up, variant H115W)
# Abscisic acid receptor PYR1: B1 Abscisic acid receptor PYR1 with P89A, H115W
# B41: H115L: PYR1 mutant (protein, UniProt O49686 1-191, looked up, variant H115L)
# Abscisic acid receptor PYR1: B1 Abscisic acid receptor PYR1 with P89A, H115L
# B42: H115M: PYR1 mutant (protein, UniProt O49686 1-191, looked up, variant H115M)
# Abscisic acid receptor PYR1: B1 Abscisic acid receptor PYR1 with P89A, H115M
# B43: R116W: PYR1 mutant (protein, UniProt O49686 1-191, looked up, variant R116W)
# Abscisic acid receptor PYR1: B1 Abscisic acid receptor PYR1 with P89A, R116W
# B44: H115F: PYR1 mutant (protein, UniProt O49686 1-191, looked up, variant H115F)
# Abscisic acid receptor PYR1: B1 Abscisic acid receptor PYR1 with P89A, H115F
# B45: R116F: PYR1 mutant (protein, UniProt O49686 1-191, looked up, variant R116F)
# Abscisic acid receptor PYR1: B1 Abscisic acid receptor PYR1 with P89A, R116F
# Tested on: HAB1
# Assay: Yeast two hybrid of pBD-PYR1 site saturation mutants with pACT-HAB1 on 10 μM ABA, β-galactosidase staining
# Format: cell-based, Arabidopsis
# Design: key: x: Mutations in PYR1 that disrupt ABA-induced binding to PYR1 to HAB1
# Conditions: S. cerevisiae Y190, 10 μM ABA; dead = lack of visible staining in comparison to wild type control
# Outline: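 Binding was read by β-galactosidase staining of chloroform-lysed colonies after 2 days at 30° C on SD (-Leu, -Trp) plates containing 10 μM (+)-ABA. Yeast strain Y190 carried the BD-PYR1 single-substitution mutants plus the AD-HAB1 fusion. Absence of staining versus the wild-type control defined "dead" mutants.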
row,Mutations in PYR1 that disrupt ABA-induced binding to PYR1 to HAB1,Molecule
1,x,B1
2,x,B2
3,x,B3
4,x,B4
5,x,B5
6,x,B6
7,x,B7
8,x,B8
9,x,B9
10,x,B10
11,x,B11
12,x,B12
13,x,B13
14,x,B14
15,x,B15
16,x,B16
17,x,B17
18,x,B18
19,x,B19
20,x,B20
21,x,B21
22,x,B22
23,x,B23

row,Mutations in PYR1 that disrupt ABA-induced binding to PYR1 to HAB1,Molecule
1,x,B24
2,x,B25
3,x,B26
4,x,B27
5,x,B28
6,x,B29
7,x,B30
8,x,B31
9,x,B32
10,x,B33
11,x,B34
12,x,B35
13,x,B36
14,x,B37
15,x,B38
16,x,B39
17,x,B40
18,x,B41
19,x,B42
20,x,B43
21,x,B44
22,x,B45
